Target: T1, Human CDH6-ECD-His (human, UniProt P55285 54-615)
T1 construct: extracellular domain; Bought protein; also called human CDH6-ECD-His recombinant protein; Human CDH6-EC6D-His; not shown: His tag
T1 sequence (looked up): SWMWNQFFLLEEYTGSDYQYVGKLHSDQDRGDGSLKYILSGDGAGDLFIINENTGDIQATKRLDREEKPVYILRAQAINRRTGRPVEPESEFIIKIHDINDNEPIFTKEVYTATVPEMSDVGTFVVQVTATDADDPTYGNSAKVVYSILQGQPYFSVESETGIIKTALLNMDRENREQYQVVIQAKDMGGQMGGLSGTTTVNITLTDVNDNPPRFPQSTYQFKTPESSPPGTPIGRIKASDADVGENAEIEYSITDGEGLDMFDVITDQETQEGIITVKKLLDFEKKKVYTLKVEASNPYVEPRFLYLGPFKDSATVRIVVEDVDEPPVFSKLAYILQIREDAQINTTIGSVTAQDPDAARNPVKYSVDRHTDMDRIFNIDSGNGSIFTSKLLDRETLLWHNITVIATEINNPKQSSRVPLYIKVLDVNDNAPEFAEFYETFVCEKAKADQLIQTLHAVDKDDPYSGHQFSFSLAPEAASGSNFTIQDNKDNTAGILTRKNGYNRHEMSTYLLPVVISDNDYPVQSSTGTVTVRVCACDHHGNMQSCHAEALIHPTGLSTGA
Experiment: ELISA, antigen coated at 1 ug/mL, 3-fold antibody dilutions, HRP anti-human antibody, OD450
Protocol: CDH9 and […] are the most closely related family members to CDH6. Binding of CL069707-H1L1 on human CDH6, CDH9 and CDH10 ECD domains were analyzed by ELISA Binding Assay. Human […], CDH9-ECD-His and CDH10-ECD-His antigens were obtained from Acro Biosystems, Inc. 100 μL of 1 μg/mL of the antigens diluted in PBS were added to 96 well plates and incubated in 4° C. overnight. The plates were washed 3 times with 300 μL of washing buffer. Then 100 μL/well of 1% BSA blocking reagent were added to the plates, and incubated at 37° C. for 1 h then the blocking reagent were discarded. A 3-fold serial dilution of CL069707-H1L1 was added to the plates and then incubated at 37° C. for 1 h. Then the plates were washed 3 times with 300 μL of washing buffer. 100 μL/well of HRP-conjugated anti-Human antibody diluted in 1% BSA were added to the plates and then incubated at 37° C. for 1 h. The plates were washed 3 times with 300 μL of washing buffer. 100 μL/well of TMB substrate were added to the plates and incubated for about 10 min in room temperature. Then the reaction was stopped with 100 μL/well of stopping solution. OD450 was read with a plate reader and the data were processed.
Binding of CL069707-H1L1 on human, cyno monkey, mouse or rat CDH6 antigen were analyzed by ELISA. Human, cyno monkey, mouse and rat CDH6-ECD-His antigens were obtained from Acro Biosystems, Inc. ELISA were done with the same methods as in example 3.1. CL069707-H1L1 binds to human, cyno monkey, mouse and rat CDH6-ECD-His antigens with similar EC50.

EC50 (read off the curve): ~0.1 nM
B1: CL069707-H1L1 (antibody, human IgG1, kappa, V domains shown)
VH: EVQLVESGGGLVQPGGSLRLSCAASGFTFTTYAMNWVRQAPGKGLEWVARIRIKNNNYATYYADSVTDRFTISRDDSKNSLYLQMNSLKTEDTAVYYCVRPDYGNYGLAYWGQGTLVTVSS
VL: DIQLTQSPSSLSASVGDRVTITCSASSSISSHYLHWYQQKPGKSPKLLIYRSFYLASGVPSRFSGSGSGTDFTLTISSLQPEDFATYYCQQDIVPLTFGQGTKLEIKR
notes: Humanized IgG1/kappa, produced in 293 cells; also called humanized CL069707-H1L1

From patent US20250090677A1 (MULTITUDE THERAPEUTICS, published 2025)
